Measurements: patent US7011951

Columns and labels:
human AcinusS = target: T1, human AcinusS
T1 chain: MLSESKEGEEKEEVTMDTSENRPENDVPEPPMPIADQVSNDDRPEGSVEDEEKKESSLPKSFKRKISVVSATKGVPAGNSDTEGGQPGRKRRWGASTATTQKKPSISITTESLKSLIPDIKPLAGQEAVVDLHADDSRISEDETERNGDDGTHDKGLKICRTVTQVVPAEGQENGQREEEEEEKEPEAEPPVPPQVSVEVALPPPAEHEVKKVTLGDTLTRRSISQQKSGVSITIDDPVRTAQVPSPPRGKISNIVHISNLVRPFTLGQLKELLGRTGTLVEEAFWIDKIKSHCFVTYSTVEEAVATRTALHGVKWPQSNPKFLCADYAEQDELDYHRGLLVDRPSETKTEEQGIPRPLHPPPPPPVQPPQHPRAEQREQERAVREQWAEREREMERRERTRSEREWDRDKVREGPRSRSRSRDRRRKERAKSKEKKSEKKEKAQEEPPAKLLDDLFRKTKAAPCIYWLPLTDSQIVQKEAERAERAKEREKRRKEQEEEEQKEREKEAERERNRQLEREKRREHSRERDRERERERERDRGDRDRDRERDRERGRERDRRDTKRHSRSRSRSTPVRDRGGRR

[1] = target: T2, AcinusS (D/A) resulting from substitution of Asp^1093 with Ala
T2 chain: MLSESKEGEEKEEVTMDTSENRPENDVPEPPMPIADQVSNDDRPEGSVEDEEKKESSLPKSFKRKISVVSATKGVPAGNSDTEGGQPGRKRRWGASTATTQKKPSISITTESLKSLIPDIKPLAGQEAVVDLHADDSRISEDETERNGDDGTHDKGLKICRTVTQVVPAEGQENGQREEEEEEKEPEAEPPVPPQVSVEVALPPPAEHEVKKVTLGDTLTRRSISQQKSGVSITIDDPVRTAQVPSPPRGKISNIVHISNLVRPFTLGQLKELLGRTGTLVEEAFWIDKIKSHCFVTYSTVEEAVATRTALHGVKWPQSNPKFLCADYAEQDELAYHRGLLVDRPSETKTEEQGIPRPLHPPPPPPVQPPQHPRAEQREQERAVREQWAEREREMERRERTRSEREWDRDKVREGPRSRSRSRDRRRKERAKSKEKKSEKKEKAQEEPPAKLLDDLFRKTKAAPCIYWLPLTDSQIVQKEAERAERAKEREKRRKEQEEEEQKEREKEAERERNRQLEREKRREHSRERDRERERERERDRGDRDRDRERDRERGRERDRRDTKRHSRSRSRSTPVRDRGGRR

B1: recombinant active human caspase-3 (protein)
chain: SGISLDNSYKMDYPEMGLCIIINNKNFHKSTGMTSRSGTDVDAANLRETFRNLKYEVRNKNDLTREEIVELMRDVSKEDHSKRSSFVCVLLSHGEEGIIFGTNGPVDLKKITNFFRGDRCRSLTGKPKLFIIQACRGTELDCGIETDSGVDDDMACHKIPVEADFLYAYSTAPGYYSWRNSKDGSWFIQSLCAMLKQYADKLEFMHILTRVNRKVATEFESFSFDATFHAKKQIPCIVSMLTKELYFYH
For B1, which “cleavage of AcinusS by caspase-3 (SDS-PAGE, immunoblot; microsequencing of the cleavage product)” value (human AcinusS) is on record?
The value was “human AcinusS was actually cleaved with caspase-3 in vivo, and the cleavage site was determined to be the Asp^1093 of DELD^1093”.

What about the “in vitro cleavage by caspase-3 (SDS-PAGE, immunoblot)” value [1] of the same protein?
Its value is “a mutation of substituting Asp^1093 with Ala (D/A) abolished the in vitro cleavage of Acinus by caspase-3”.
